From patent US20110045003A1 (SYNOVEX, published 2011)

T1: BSA coupled 37-mer Cad-11 peptide encompassing the Cad-11 immunogen (UniProt P55287 54-90, limits assumed, linked to BSA)
T1 construct: domain: 37-mer peptide encompassing the Cad-11 immunogen; also called Cad-11 antigen; Cad-11 peptide immunogen
T1 peptide (looked up): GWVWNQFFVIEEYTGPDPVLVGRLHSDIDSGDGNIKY

T2: recombinant Cad-11 EC1 human IgG1 fusion protein (R&D Systems Cat. No. 1790-CA-050) (human, UniProt P55287 54-617, limits assumed)
T2 construct: Bought protein; the catalogue product may hold more of the extracellular region; also called recombinant human Cad-11 EC1; recombinant human Cad-11 fusion protein; not shown: human IgG1 part of the bought fusion protein
T2 sequence: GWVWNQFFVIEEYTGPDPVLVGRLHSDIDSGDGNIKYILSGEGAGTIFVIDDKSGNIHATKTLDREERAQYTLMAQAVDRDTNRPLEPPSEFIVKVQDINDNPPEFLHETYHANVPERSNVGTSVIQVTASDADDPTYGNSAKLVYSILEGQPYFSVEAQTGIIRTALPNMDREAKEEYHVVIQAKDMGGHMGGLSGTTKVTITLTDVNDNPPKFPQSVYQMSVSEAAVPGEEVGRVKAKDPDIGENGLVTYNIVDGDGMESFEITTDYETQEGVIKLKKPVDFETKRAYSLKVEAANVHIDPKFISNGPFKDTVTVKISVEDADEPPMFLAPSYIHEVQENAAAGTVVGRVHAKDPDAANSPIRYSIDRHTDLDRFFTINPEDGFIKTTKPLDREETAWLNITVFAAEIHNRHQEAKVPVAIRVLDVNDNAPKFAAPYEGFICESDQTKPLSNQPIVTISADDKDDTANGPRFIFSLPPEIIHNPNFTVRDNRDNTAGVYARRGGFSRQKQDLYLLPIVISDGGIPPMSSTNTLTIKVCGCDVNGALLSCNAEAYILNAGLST


Columns and labels:
[1] = molecular target: T1, BSA coupled 37-mer Cad-11 peptide …; assay: ELISA, BSA-coupled 37-mer cadherin peptide coated at 500 ng/ml, antibody titrated, A450
Protocol: Reactibind plates (ThermoScientific) were coated with 500 ng/ml of the BSA coupled cadherin 37-mer peptide (NE peptide) corresponding to Cadherins-7, -8, -9, -11, -18, -20, and -24 in 0.05% Tween (EMD, product code 9480) in PBS (pH 7.2) (Gibco(Invitrogen), #20012) at 100 μl volume/well for overnight at 4° C. The peptide containing solution was removed from the well and the plate blocked with a 2% bovine serum albumin (BSA) in PBS, 200 μl volume/well, for 2 h at 22° C. The plate was then washed twice with 200 μl/well of PBS-Tween 0.05% at 22° C. and blotted dry. A dilution series from 5 μg/ml to 8 ng/ml in a volume of 100 μl/well of each the humanized anti-Cad-11 antibodies were incubated in the peptide coated wells and incubated at 22° C. for 1 hr. Antibody solution was removed from the wells and the plate washed twice with 200 μl/well of 0.05% Tween-PBS at 22° C. and blotted dry. The goat-anti mouse IgG (Pierce # 31432) was added to each well to plate at a 1:1000 dilution, 100 μl/well and incubate at 22° C. for 30 min. The secondary antibody solution was removed and the plate washed twice with 200 μl/well of 0.05% Tween-PBS at 22° C. and blotted dry. The reaction was developed by adding 100 μl/well tetramethylbenzidine (TMB) reagent IgG (Pierce # 34022, 1 step Turbo TMB-ELISA) to plate and developed at 22° C. for 5 min.

[2] = molecular target: T2, recombinant Cad-11 EC1 human IgG1 …; assay: competition ELISA on coated recombinant human Cad-11 EC1 fusion; competitor biotinylated SYN0012/H1M1 at 0.1 µg/ml
Protocol: (§1) The binding of the purified humanized composite variant antibodies (SDP011 to SDP151) to a recombinant Cad-11 EC1 human IgG1 fusion protein was assessed in a competition binding ELISA. A dilution series from 5 μg/ml to 0.0022 μg/ml of the humanized or control (SYN0012/H1M1) antibodies was premixed with a constant concentration of biotinylated murine anti-Cad-11 antibody, SYN0012/H1M1 (0.1 μg/ml, final concentration), before incubating for 1 hour at room temperature on a Nunc Immuno MaxiSorp 96 well flat bottom microtitre plate (Fisher Cat. No. DIS-971-030J) pre-coated with 0.25 μg/ml recombinant human Cad-11 EC1 (R&D Systems Cat. No. 1790-CA-050) diluted in PBS. The binding of the biotinylated mAb was detected with streptavidin-HRP (Sigma Cat. No. 55512) and tetramethylbenzidine (TMB) substrate (Invitrogen Cat. No. 00-2023).
The relative IC50 was calculated by dividing the value for the test antibody by that of SYN0012. Antibody expression levels given are for static cultures in T flasks. PI are calculated.

[3] = molecular target: T2, recombinant Cad-11 EC1 human IgG1 …; assay: competition ELISA: antibody dilution series premixed with biotinylated SYN0012/H1M1 (0.1 µg/ml) on plate-coated recombinant human Cad-11 EC1 fusion protein; OD450 = bound biotinylated SYN0012
Protocol: as §1

[4] = molecular target: T2, recombinant Cad-11 EC1 human IgG1 …; assay: competition ELISA on coated recombinant human Cad-11 EC1 fusion protein; competitor biotinylated SYN0012 at 0.1 µg/ml, streptavidin-HRP, OD450
Protocol: as §1

| EC50 (read off the curve) [1] [µg/mL] | relative IC50 (IC50 of the test antibody divided by that of SYN0012) [2] | IC50 (read off the curve) [3] [µg/mL] | IC50 (read off the curve) [4] [µg/mL] | Binder |
| --- | --- | --- | --- | --- |
| ~0.06 | 0.52 ratio (column head prints µg/mL) | ~0.2 |  | humanized anti-Cad-11 antibody SDP121 (Vκ3/VH2) (antibody, IgG4, V domains shown, humanized IgG4 (S241P), kappa) VH: EVQLVQSGAEVKKPGASVKISCKASGYSFTGYFMNWVKQAPGQGLEWIGRINPYTGDTFYNQKFKGRATLTVDKSTSTAYMELSSLRSEDTAVYYCGRLGSRYWYFDVWGQGTTVTVSS VL: DVVMTQTPLSSPVTLGQPASISCRSSQSIIHSNGNTYLEWYLQKPGQSPQLLIYKVSNRFSGVPDRFSGSGSGTDFTLKISRVEAEDVGVYYCFQGSHVPWTFGQGTKLEIK |
| ~0.06 | 0.61 ratio (column head prints µg/mL) | ~0.2 |  | humanized anti-Cad-11 antibody SDP141 (Vκ3/VH4) (antibody, IgG4, V domains shown, humanized IgG4 (S241P), kappa) VH: EVQLVQSGAEVKKPGASVKVSCKASGYSFTGYFMNWVRQAPGQGLEWIGRINPYTGDTFYNQKFKGRATITVDKSTSTAYMELSSLRSEDTAVYYCGRLGSRYWYFDVWGQGTTVTVSS VL: DVVMTQTPLSSPVTLGQPASISCRSSQSIIHSNGNTYLEWYLQKPGQSPQLLIYKVSNRFSGVPDRFSGSGSGTDFTLKISRVEAEDVGVYYCFQGSHVPWTFGQGTKLEIK |
| ~0.07 | 0.55 ratio (column head prints µg/mL) | ~0.2 |  | humanized anti-Cad-11 antibody SDP131 (Vκ3/VH3) (antibody, IgG4, V domains shown, humanized IgG4 (S241P), kappa) VH: EVQLVQSGAEVKKPGASVKISCKASGYSFTGYFMNWVRQAPGQGLEWIGRINPYTGDTFYNQKFKGRATLTVDKSTSTAYMELSSLRSEDTAVYYCGRLGSRYWYFDVWGQGTTVTVSS VL: DVVMTQTPLSSPVTLGQPASISCRSSQSIIHSNGNTYLEWYLQKPGQSPQLLIYKVSNRFSGVPDRFSGSGSGTDFTLKISRVEAEDVGVYYCFQGSHVPWTFGQGTKLEIK |
| ~0.07 | 0.53 ratio (column head prints µg/mL) |  |  | humanized anti-Cad-11 antibody SDP101 (Vκ2/VH5) (antibody, IgG4, V domains shown, humanized IgG4 (S241P), kappa) VH: EVQLVQSGAEVKKPGASVKVSCKASGYSFTGYFMNWVRQAPGQGLEWIGRINPYTGDTFYNQKFKGRVTITVDKSTSTAYMELSSLRSEDTAVYYCGRLGSRYWYFDVWGQGTTVTVSS VL: DVLMTQTPLSSPVTLGQPASISCRSSQSIIHSNGNTYLEWYLQKPGQSPQLLIYKVSNRFSGVPDRFSGSGSGTDFTLKISRVEAEDVGVYYCFQGSHVPWTFGQGTKLEIK |
| ~0.07 | 0.57 ratio (column head prints µg/mL) |  |  | humanized anti-Cad-11 antibody SDP091 (Vκ2/VH4) (antibody, IgG4, V domains shown, humanized IgG4 (S241P), kappa) VH: EVQLVQSGAEVKKPGASVKVSCKASGYSFTGYFMNWVRQAPGQGLEWIGRINPYTGDTFYNQKFKGRATITVDKSTSTAYMELSSLRSEDTAVYYCGRLGSRYWYFDVWGQGTTVTVSS VL: DVLMTQTPLSSPVTLGQPASISCRSSQSIIHSNGNTYLEWYLQKPGQSPQLLIYKVSNRFSGVPDRFSGSGSGTDFTLKISRVEAEDVGVYYCFQGSHVPWTFGQGTKLEIK |
| ~0.06 | 0.72 ratio (column head prints µg/mL) | ~0.2 |  | humanized anti-Cad-11 antibody SDP151 (Vκ3/VH5) (antibody, IgG4, V domains shown, humanized IgG4 (S241P), kappa) VH: EVQLVQSGAEVKKPGASVKVSCKASGYSFTGYFMNWVRQAPGQGLEWIGRINPYTGDTFYNQKFKGRVTITVDKSTSTAYMELSSLRSEDTAVYYCGRLGSRYWYFDVWGQGTTVTVSS VL: DVVMTQTPLSSPVTLGQPASISCRSSQSIIHSNGNTYLEWYLQKPGQSPQLLIYKVSNRFSGVPDRFSGSGSGTDFTLKISRVEAEDVGVYYCFQGSHVPWTFGQGTKLEIK |
| ~0.07 | 0.68 ratio (column head prints µg/mL) | ~0.2 |  | humanized anti-Cad-11 antibody SDP111 (Vκ3/VH1) (antibody, IgG4, V domains shown, humanized IgG4 (S241P), kappa) VH: EVQLVQSGPELKKPGASVKISCKASGYSFTGYFMNWVKQAHGQGLEWIGRINPYTGDTFYNQKFKGRATLTVDKSSSTAYMELVSLSSEDSAVYYCGRLGSRYWYFDVWGQGTTVTVSS VL: DVVMTQTPLSSPVTLGQPASISCRSSQSIIHSNGNTYLEWYLQKPGQSPQLLIYKVSNRFSGVPDRFSGSGSGTDFTLKISRVEAEDVGVYYCFQGSHVPWTFGQGTKLEIK |

Further lines, the binder ahead of its results:

| Binder | EC50 (read off the curve) [1] [µg/mL] | relative IC50 (IC50 of the test antibody divided by that of SYN0012) [2] | IC50 (read off the curve) [3] [µg/mL] | IC50 (read off the curve) [4] [µg/mL] |
| --- | --- | --- | --- | --- |
| humanized anti-Cad-11 antibody SDP081 (Vκ2/VH3) (antibody, IgG4, V domains shown, humanized IgG4 (S241P), kappa) VH: EVQLVQSGAEVKKPGASVKISCKASGYSFTGYFMNWVRQAPGQGLEWIGRINPYTGDTFYNQKFKGRATLTVDKSTSTAYMELSSLRSEDTAVYYCGRLGSRYWYFDVWGQGTTVTVSS VL: DVLMTQTPLSSPVTLGQPASISCRSSQSIIHSNGNTYLEWYLQKPGQSPQLLIYKVSNRFSGVPDRFSGSGSGTDFTLKISRVEAEDVGVYYCFQGSHVPWTFGQGTKLEIK | ~0.08 | 0.42 ratio (column head prints µg/mL) |  |  |
| humanized anti-Cad-11 antibody SDP021 (Vκ1/VH2) (antibody, IgG4, V domains shown, humanized IgG4 (S241P), kappa) VH: EVQLVQSGAEVKKPGASVKISCKASGYSFTGYFMNWVKQAPGQGLEWIGRINPYTGDTFYNQKFKGRATLTVDKSTSTAYMELSSLRSEDTAVYYCGRLGSRYWYFDVWGQGTTVTVSS VL: DVLMTQTPLSSPVTLGQPASISCRSSQSIIHSNGNTYLEWYLQKPGQSPQLLIYKVSNRFSGVPDRFTGSGSGTDFTLKISRVEAEDVGVYYCFQGSHVPWTFGQGTKLEIK | ~0.06 | 0.67 ratio (column head prints µg/mL) |  | ~0.1 |
| humanized anti-Cad-11 antibody SDP041 (Vκ1/VH4) (antibody, IgG4, V domains shown, humanized IgG4 (S241P), kappa) VH: EVQLVQSGAEVKKPGASVKVSCKASGYSFTGYFMNWVRQAPGQGLEWIGRINPYTGDTFYNQKFKGRATITVDKSTSTAYMELSSLRSEDTAVYYCGRLGSRYWYFDVWGQGTTVTVSS VL: DVLMTQTPLSSPVTLGQPASISCRSSQSIIHSNGNTYLEWYLQKPGQSPQLLIYKVSNRFSGVPDRFTGSGSGTDFTLKISRVEAEDVGVYYCFQGSHVPWTFGQGTKLEIK | ~0.06 | 0.65 ratio (column head prints µg/mL) |  | ~0.1 |
| humanized anti-Cad-11 antibody SDP011 (Vκ1/VH1) (antibody, IgG4, V domains shown, humanized IgG4 (S241P), kappa) VH: EVQLVQSGPELKKPGASVKISCKASGYSFTGYFMNWVKQAHGQGLEWIGRINPYTGDTFYNQKFKGRATLTVDKSSSTAYMELVSLSSEDSAVYYCGRLGSRYWYFDVWGQGTTVTVSS VL: DVLMTQTPLSSPVTLGQPASISCRSSQSIIHSNGNTYLEWYLQKPGQSPQLLIYKVSNRFSGVPDRFTGSGSGTDFTLKISRVEAEDVGVYYCFQGSHVPWTFGQGTKLEIK | ~0.07 | 0.91 ratio (column head prints µg/mL) |  | ~0.2 |
